The values below come from US20100158927A1.

This assay concerns the target HLA-A2 molecules on the cell surface (total) (human). Put plainly: flow cytometry on 501A melanoma cells, PE-conjugated BB7.2.

With anti-HLA-A2 mAb BB7.2 (antibody), the MFI stood at 56.4 MFI.
